1 substance from publication PMC5492865 can be followed below.

The experiment has as its target papain (UniProt P00784).
Sequence of UniProt P00784 (P00784 134-345): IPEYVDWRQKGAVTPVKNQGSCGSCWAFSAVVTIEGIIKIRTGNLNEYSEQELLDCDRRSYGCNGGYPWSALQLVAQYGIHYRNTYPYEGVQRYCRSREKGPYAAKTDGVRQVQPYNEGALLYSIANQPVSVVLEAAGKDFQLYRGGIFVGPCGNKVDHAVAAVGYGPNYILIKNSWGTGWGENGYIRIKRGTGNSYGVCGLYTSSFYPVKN

Regarding “salivary tick cystatin OmC2, recombinant, from insect Sf9 cells, with C-terminal oligo His-tag (non-labeled) (natural protein)”, the active site titration of 10 nM papain with cystatin OmC2 (substrate 10 μM Z-Phe-Arg-AMC, 0.1 M phosphate buffer pH 6.0): molar ratio at which dF/dt = 0 (text: the inhibitor was 88% active) is 1.16 molar ratio.
